Assay results: patent US20140308285A1 (Amgen, published 2014)
One block for each binder: values may come before it.

Assays:
[1] = biological target: T1, human CD3 (CD3 epsilon chain) on human T cells (human, UniProt P07766 22-207); assay: FACS on isolated human T cells, FITC anti-human light chain secondary antibody
T1 construct: The assay used isolated human T cells, which carry CD3 as part of the TCR-CD3 complex; also called CD3ε
Protocol: The heterodimeric bispecific antibodies described in Example 1 were produced in HEK 293 cells and were assayed by fluorescence activated cell sorting (FACS) for binding to T cells, which express CD3, and to a human ovarian cancer cell line, Ovcar-8, which expresses mesothelin. Briefly, the heterodimeric bispecific antibodies were incubated with about 50,000 Ovcar-8 cells or isolated human or cynomolgus monkey T cells at 4° C. for one hour. The cells were then washed and stained with a fluorescein isothiocyanate (FITC)-conjugated anti-human light chain secondary antibody and analyzed by flow cytometry. The relative binding was represented by the geometric mean of fluorescence intensity.

[2] = biological target: T2, folate receptor 1 (FOLR1) on tumor cell lines (Cal-51, T47D) (human, UniProt P15328 25-234); assay: cell-based or functional assay
T2 sequence (P15328 25-234, stated change not applied): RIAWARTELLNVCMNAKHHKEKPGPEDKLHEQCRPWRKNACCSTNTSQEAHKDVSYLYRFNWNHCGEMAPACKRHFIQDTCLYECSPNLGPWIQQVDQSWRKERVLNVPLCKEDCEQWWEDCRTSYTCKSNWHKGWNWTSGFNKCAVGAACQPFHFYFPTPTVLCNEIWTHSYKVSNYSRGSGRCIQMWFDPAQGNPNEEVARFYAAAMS

[3] = biological target: T2, folate receptor 1 (FOLR1) on tumor cell …; assay: cell-based or functional assay; remark: listed apart in the source

T1 sequence (P07766 22-207 limits assumed): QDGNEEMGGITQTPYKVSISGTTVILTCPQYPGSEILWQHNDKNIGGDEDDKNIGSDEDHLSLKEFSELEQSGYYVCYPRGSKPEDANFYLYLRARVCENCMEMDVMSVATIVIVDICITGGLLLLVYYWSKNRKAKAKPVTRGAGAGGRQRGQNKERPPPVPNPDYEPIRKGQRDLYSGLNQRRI

FACS binding (geometric mean) [1]: 179
B1: P69059.3 (bispecific antibody)
chain 1: SYELTQPPSVSVSPGQTARITCSGDALPKKYAYWYQQKSGQAPVLVIYEATKRPSGIPERFSGSSSGTMATLTLSGAQVEDEADYYCYSTDSTNYHWVFGGGTKLTVLGGGGGSGGGGSQVQLQESGPGLVKPSQTLSLTCTVSGGSINNNNYYWTWIRQHPGKGLEWIGYIYYSGSTFYNPSLKSRVTISVDTSKTQFSLKLSSVTAADTAVYYCAREDTMTGLDVWGQGTTVTVSSASTKGPSVFPLAPCSRSTSESTAALGCLVKDYFPEPVTVSWNSGALTSGVHTFPAVLQSSGLYSLSSVVTVPSSNFGTQTYTCNVDHKPSNTKVDKTVGGGGSAAAVPRDLEVVAATPTSLLISWDAPHHGVAYYRITYGETGGNSPVQEFTVPGSKSTATISGLKPGVDYTINVYAVLAYPRGYPLSKPISINYRTDYKDDDDKGSSHHHHHH
chain 2: DIQMTQSPSSLSASVGDRVTITCRASQSINNYLNWYQQKPGKAPTLLIYAASSLQSGVPSRFSGSRSGTDFTLTISSLQPEDFAAYFCQQTYSNPTFGQGTKVEVKGGGGSGGGGSEVQLVESGGGLVKPGVSLRLSCAASGFTFSRYSMNWVRQAPGKGLEWVSSISSSGTYIKYADSVKGRFTISRDNAKNSLNLQMNSLRAEDTAVYYCARDRDRYPLDYWGQGTLVTVSSRTVAAPSVFIFPPSDEQLKSGTASVVCLLNNFYPREAKVQWKVDNALQSGNSQESVTEQDSKDSTYSLSSTLTLSKADYEKHKVYACEVTHQGLSSPVTKSFNRGEC

EC50 (pM) for cytokine release, IFN-γ, in presence of T47D cells [2]: 27.1 pM
EC50 (pM) for cytokine release, IL-2, in presence of T47D cells [2]: 20.3 pM
EC50 (pM) for cytokine release, IL-10, in presence of T47D cells [2]: 28.3 pM
EC50 (pM) for cytokine release, IL-13, in presence of T47D cells [2]: 27.8 pM
EC50 (pM) for cytokine release, TNF-α, in presence of T47D cells [2]: 12.5 pM
EC50 of specific lysis, Cal-51 cells (printed Cal-61) with human T cells [3]: 1.21 pM
EC50 of specific lysis, T47D cells with human T cells [3]: 1.26 pM
B2: P136795.3 (bispecific antibody)
chain 1: EVQLVESGGGLVQPGGSLKLSCAASGFTFNSYAMNWVRQAPGKGLEWVARIRSKYNNYATYYADSVKGRFTISRDDSKNTAYLQMNNLKTEDTAVYYCVRHGNFGNSYVSWWAYWGQGTLVTVSSGGGGSGGGGSQSVLTQPPSVSEAPRQRVTISCSGSSSNIGNNAVNWYQQLPGKAPKLLIYYDDMLSSGVSDRFSGSKSGTSASLAISGLQSEDEADYYCAAWDDSLNGVVFGGGTKLTVLASTKGPSVFPLAPCSRSTSESTAALGCLVKDYFPEPVTVSWNSGALTSGVHTFPAVLQSSGLYSLSSVVTVPSSNFGTQTYTCNVDHKPSNTKVDKTVGGGGSAAAEPKSSDKTHTCPPCPAPEAAGGPSVFLFPPKPKDTLMISRTPEVTCVVVDVSHEDPEVKFNWYVDGVEVHNAKTKPREEQYNSTYRVVSVLTVLHQDWLNGKEYKCKVSNKALPAPIEKTISKAKGQPREPQVYTLPPSREEMTKNQVSLTCLVKGFYPSDIAVEWESNGQPENNYDTTPPVLDSDGSFFLYSDLTVDKSRWQQGNVFSCSVMHEALHNHYTQKSLSLSPGK
chain 2: not shown

FACS binding (geometric mean) [1]: 354
B3: H71362.2 (bispecific antibody)
chain 1: EVQLVESGGGLVKPGVSLRLSCAASGFTFSRYGMNWVRQAPGKGLEWVSSISSSGTYIKYADSVKGRFTISRDNAKNSLNLQMNSLRAEDTAVYYCARDRDRYPLDYWGQGTLVTVSSASTKGPQVQLQESGPGLVKPSETLSLTCTVSGGSIISHYWSWIRQPPGKGLEWIGYIYYSGSTNYNPSLKSRVTISVDTSKNQFSLKLTSVTAADTAVYYCARDGWSAFDYWGQGTLVTVSSASTKGPSVFPLAPCSRSTSESTAALGCLVKDYFPEPVTVSWNSGALTSGVHTFPAVLQSSGLYSLSSVVTVPSSNFGTQTYTCNVDHKPSNTKVDKTVGGGGSAAAVPRDLEVVAATPTSLLISWDAIGLYPYYYRITYGETGGNSPVQEFTVPGSKSTATISGLKPGVDYTITVYAVSGIFGWNNSKPISINYRTGSSDYKDDDDKGSSHHHHHH
chain 2: SYELTQPPSVSVSPGQTARITCSGDALPKKYAYWYQQKSGQAPVLVIYEATKRPSGIPERFSGSSSGTMATLTLSGAQVEDEADYYCYSTDSTNYHWVFGGGTKLTVLGTVAAPDIQMTQSPSSLSASVGDRVTITCRASQGIRNALGWYQQKPGKAPKRLIYAASSLQSGVPSRFSGSGSGTEFTLTISSLQPEDFATYYCLQHNSYPRTFGQGTKVEIRRTVAAPSVFIFPPSDEQLKSGTASVVCLLNNFYPREAKVQWKVDNALQSGNSQESVTEQDSKDSTYSLSSTLTLSKADYEKHKVYACEVTHQGLSSPVTKSFNRGEC
